Laboratory results taken from patent US20250376519A1 (JIANGSU HENGRUI PHARMACEUTICALS, published 2025).

Legend:
hPDL1 = molecular target: T1, hPDL1 (human, UniProt Q9NZQ7 19-239); assay: ELISA
T1 construct: bought

hCTLA4 = molecular target: T2, hCTLA4 (human, UniProt P16410 36-162, limits assumed); assay: ELISA
T2 construct: bought
T2 sequence (P16410 36-162 limits assumed): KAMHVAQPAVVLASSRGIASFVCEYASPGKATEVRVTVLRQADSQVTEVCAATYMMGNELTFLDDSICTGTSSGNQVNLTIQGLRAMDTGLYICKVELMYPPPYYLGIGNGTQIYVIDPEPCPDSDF

T1 sequence (Q9NZQ7 19-239 limits assumed): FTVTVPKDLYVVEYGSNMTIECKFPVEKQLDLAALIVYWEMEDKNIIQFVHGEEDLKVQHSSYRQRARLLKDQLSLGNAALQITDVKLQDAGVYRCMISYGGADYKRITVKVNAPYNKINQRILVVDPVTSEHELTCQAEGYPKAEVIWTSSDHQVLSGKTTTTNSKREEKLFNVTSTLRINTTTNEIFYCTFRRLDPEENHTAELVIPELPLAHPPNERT

| Binder | EC50 (hPDL1) [nM] | EC50 (hCTLA4) [nM] |
| --- | --- | --- |
| PL-2 (bispecific antibody) chain 1: not shown chain 2: DIVLTQSPASLAVSPGQRATITCRASESVSIHGTHLMHWYQQKPGQPPKLLIYAASKLESGVPARFSGSGSGTDFTLTINPVEAEDTANYYCQQSFEDPLTFGQGTKLEIKGGGGSGIPPKIECLPIDISIDEGKVLTVASAFTGEPTPEVTWSTGGRKIHSQEQGRFHIENTDDSTTLTIKDVQKQDGGLYTLTLRNEFGSDSATVNIHIRSI chain 3: not shown chain 4: not shown | 0.5 | 8 |
| PL-9 (bispecific antibody) chain 1: not shown chain 2: DIVLTQSPASLAVSPGQRATITCRASESVSIHGTHLMHWYQQKPGQPPKLLIYAASKLESGVPARFSGSGSGTDFTLTINPVEAEDTANYYCQQSFEDPLTFGQGTKLEIKGGGGSGIPPKIECLPIDISIDEGKCLTVASAFTGEPTPEVTWSTGGRKIHSQEQGRFHIENTDDSTTLTIKDVQKQDGGLYTLTLRNEFGSDSATVNIHIRSI chain 3: not shown chain 4: not shown | 0.6 | 5.5 |
| PL-4 (bispecific antibody) chain 1: not shown chain 2: DIVLTQSPASLAVSPGQRATITCRASESVSIHGTHLMHWYQQKPGQPPKLLIYAASKLESGVPARFSGSGSGTDFTLTINPVEAEDTANYYCQQSFEDPLTFGQGTKLEIKGGGGSGIPPKIECLPIDISIDEGKVLTVASCFTGEPTPEVTWSTGGRKIHSQEQGRFHIENTDDSTTLTIKDVQKQDGGLYTLTLRNEFGSDSATVNIHIRSI chain 3: not shown chain 4: not shown | 0.7 | 6.5 |
| PL-11 (bispecific antibody) chain 1: not shown chain 2: DIVLTQSPASLAVSPGQRATITCRASESVSIHGTHLMHWYQQKPGQPPKLLIYAASKLESGVPARFSGSGSGTDFTLTINPVEAEDTANYYCQQSFEDPLTFGQGTKLEIKRTVASGIPPKIECLPIDISIDEGKVLTVASAFTGEPTPEVTWSTGGRKIHSQEQGRFHIENTDDSTTLTIKDVQKQDGGLYTLTLRNEFGSDSATVNIHIRSI chain 3: not shown chain 4: not shown | 0.6 | 5.6 |
| PL-16 (bispecific antibody) chain 1: not shown chain 2: DIVLTQSPASLAVSPGQRATITCRASESVSIHGTHLMHWYQQKPGQPPKLLIYAASKLESGVPARFSGSGSGTDFTLTINPVEAEDTANYYCQQSFEDPLTFGQGTKLEIKRTVASGIPPKIECLPIDISIDEGKVLTVASCFTGEPTPEVTWSTGGRKIHSQEQGRFHIENTDDSTTLTIKDVQKQDGGLYTLTLRNEFGSDSATVNIHIRSI chain 3: not shown chain 4: not shown | 1.7 | 34.9 |
| PL-17 (bispecific antibody) chain 1: not shown chain 2: DIVLTQSPASLAVSPGQRATITCRASESVSIHGTHLMHWYQQKPGQPPKLLIYAASKLESGVPARFSGSGSGTDFTLTINPVEAEDTANYYCQQSFEDPLTFGQGTKLEIKRTVASGIPPKIECLPIDISIDEGKVLTVASAFTGEPTPEVTWSTGGRKIHSQEQGRFHIENTDDSTTLTIKDVQKQDGGLYTLTLRNEFGSDSATVNIHIRSI chain 3: not shown chain 4: not shown | 1.4 | 6.2 |
| PL-19 (bispecific antibody) chain 1: not shown chain 2: DIVLTQSPASLAVSPGQRATITCRASESVSIHGTHLMHWYQQKPGQPPKLLIYAASKLESGVPARFSGSGSGTDFTLTINPVEAEDTANYYCQQSFEDPLTFGQGTKLEIKRTVASGIPPKIECLPIDISIDEGKVLTVASCFTGEPTPEVTWSTGGRKIHSQEQGRFHIENTDDSTTLTIKDVQKQDGGLYTLTLRNEFGSDSATVNIHIRSI chain 3: not shown chain 4: not shown | 1.6 | 6.5 |

Further binders by falling EC50 (hPDL1), results first:

| EC50 (hPDL1) [nM] | EC50 (hCTLA4) [nM] | Binder |
| --- | --- | --- |
| 1.6 | 6.7 | PL-18 (bispecific antibody) chain 1: not shown chain 2: DIVLTQSPASLAVSPGQRATITCRASESVSIHGTHLMHWYQQKPGQPPKLLIYAASKLESGVPARFSGSGSGTDFTLTINPVEAEDTANYYCQQSFEDPLTFGQGTKLEIKRTVASGIPPKIECLPIDISIDEGKCLTVASAFTGEPTPEVTWSTGGRKIHSQEQGRFHIENTDDSTTLTIKDVQKQDGGLYTLTLRNEFGSDSATVNIHIRSI chain 3: not shown chain 4: not shown |
| 1.4 | 3.2 | PL-15 (bispecific antibody) chain 1: not shown chain 2: DIVLTQSPASLAVSPGQRATITCRASESVSIHGTHLMHWYQQKPGQPPKLLIYAASKLESGVPARFSGSGSGTDFTLTINPVEAEDTANYYCQQSFEDPLTFGQGTKLEIKRTVASGIPPKIECLPIDISIDEGKCLTVASAFTGEPTPEVTWSTGGRKIHSQEQGRFHIENTDDSTTLTIKDVQKQDGGLYTLTLRNEFGSDSATVNIHIRSI chain 3: not shown chain 4: not shown |
| 1.4 | 14.5 | PL-8 (bispecific antibody) chain 1: not shown chain 2: DIVLTQSPASLAVSPGQRATITCRASESVSIHGTHLMHWYQQKPGQPPKLLIYAASKLESGVPARFSGSGSGTDFTLTINPVEAEDTANYYCQQSFEDPLTFGQGTKLEIKGGGGSGIPPKIECLPIDISIDEGKVLTVASAFTGEPTPEVTWSTGGRKIHSQEQGRFHIENTDDSTTLTIKDVQKQDGGLYTLTLRNEFGSDSATVNIHIRSI chain 3: not shown chain 4: not shown |
| 1.3 | 6 | PL-14 (bispecific antibody) chain 1: not shown chain 2: DIVLTQSPASLAVSPGQRATITCRASESVSIHGTHLMHWYQQKPGQPPKLLIYAASKLESGVPARFSGSGSGTDFTLTINPVEAEDTANYYCQQSFEDPLTFGQGTKLEIKRTVASGIPPKIECLPIDISIDEGKVLTVASAFTGEPTPEVTWSTGGRKIHSQEQGRFHIENTDDSTTLTIKDVQKQDGGLYTLTLRNEFGSDSATVNIHIRSI chain 3: not shown chain 4: not shown |
| 0.8 | 5.3 | PL-6 (bispecific antibody) chain 1: not shown chain 2: DIVLTQSPASLAVSPGQRATITCRASESVSIHGTHLMHWYQQKPGQPPKLLIYAASKLESGVPARFSGSGSGTDFTLTINPVEAEDTANYYCQQSFEDPLTFGQGTKLEIKGGGGSGIPPKIECLPIDISIDEGKCLTVASAFTGEPTPEVTWSTGGRKIHSQEQGRFHIENTDDSTTLTIKDVQKQDGGLYTLTLRNEFGSDSATVNIHIRSI chain 3: not shown chain 4: not shown |
| 0.7 | 6.7 | PL-5 (bispecific antibody) chain 1: not shown chain 2: DIVLTQSPASLAVSPGQRATITCRASESVSIHGTHLMHWYQQKPGQPPKLLIYAASKLESGVPARFSGSGSGTDFTLTINPVEAEDTANYYCQQSFEDPLTFGQGTKLEIKGGGGSGIPPKIECLPIDISIDEGKVLTVASAFTGEPTPEVTWSTGGRKIHSQEQGRFHIENTDDSTTLTIKDVQKQDGGLYTLTLRNEFGSDSATVNIHIRSI chain 3: not shown chain 4: not shown |
| 0.6 | 6.9 | PL-10 (bispecific antibody) chain 1: not shown chain 2: DIVLTQSPASLAVSPGQRATITCRASESVSIHGTHLMHWYQQKPGQPPKLLIYAASKLESGVPARFSGSGSGTDFTLTINPVEAEDTANYYCQQSFEDPLTFGQGTKLEIKGGGGSGIPPKIECLPIDISIDEGKVLTVASCFTGEPTPEVTWSTGGRKIHSQEQGRFHIENTDDSTTLTIKDVQKQDGGLYTLTLRNEFGSDSATVNIHIRSI chain 3: not shown chain 4: not shown |
| 0.6 | 7.9 | PL-3 (bispecific antibody) chain 1: not shown chain 2: DIVLTQSPASLAVSPGQRATITCRASESVSIHGTHLMHWYQQKPGQPPKLLIYAASKLESGVPARFSGSGSGTDFTLTINPVEAEDTANYYCQQSFEDPLTFGQGTKLEIKGGGGSGIPPKIECLPIDISIDEGKCLTVASAFTGEPTPEVTWSTGGRKIHSQEQGRFHIENTDDSTTLTIKDVQKQDGGLYTLTLRNEFGSDSATVNIHIRSI chain 3: not shown chain 4: not shown |
| 0.5 | 8 | PL-12 (bispecific antibody) chain 1: not shown chain 2: DIVLTQSPASLAVSPGQRATITCRASESVSIHGTHLMHWYQQKPGQPPKLLIYAASKLESGVPARFSGSGSGTDFTLTINPVEAEDTANYYCQQSFEDPLTFGQGTKLEIKRTVASGIPPKIECLPIDISIDEGKCLTVASAFTGEPTPEVTWSTGGRKIHSQEQGRFHIENTDDSTTLTIKDVQKQDGGLYTLTLRNEFGSDSATVNIHIRSI chain 3: not shown chain 4: not shown |
| 0.5 | 4.4 | PL-13 (bispecific antibody) chain 1: not shown chain 2: DIVLTQSPASLAVSPGQRATITCRASESVSIHGTHLMHWYQQKPGQPPKLLIYAASKLESGVPARFSGSGSGTDFTLTINPVEAEDTANYYCQQSFEDPLTFGQGTKLEIKRTVASGIPPKIECLPIDISIDEGKVLTVASCFTGEPTPEVTWSTGGRKIHSQEQGRFHIENTDDSTTLTIKDVQKQDGGLYTLTLRNEFGSDSATVNIHIRSI chain 3: not shown chain 4: not shown |
| 0.5 | 7.3 | PL-7 (bispecific antibody) chain 1: not shown chain 2: DIVLTQSPASLAVSPGQRATITCRASESVSIHGTHLMHWYQQKPGQPPKLLIYAASKLESGVPARFSGSGSGTDFTLTINPVEAEDTANYYCQQSFEDPLTFGQGTKLEIKGGGGSGIPPKIECLPIDISIDEGKVLTVASCFTGEPTPEVTWSTGGRKIHSQEQGRFHIENTDDSTTLTIKDVQKQDGGLYTLTLRNEFGSDSATVNIHIRSI chain 3: not shown chain 4: not shown |
